# Data from PMC12423313, “Protein-based tools for the detection and characterisation of Oropouche virus infection” (EMBO Molecular Medicine, 2025).
# B1: nanobody NpE3, His8-tagged (VHH)
# VHH: QVQLVESGGGLVRPGGSLRLSCAASGFTFSNAYMTWIRQAPGKDLEWVSSIYYGDMTSYATSVKGRFTISRDNAKNTLYLQMNNLKPEDSAIYYCTKGDERGQGTQVTVSS
# notes: as the VHH of m13; also called OROV Np Nb E3 H8; not shown: His8, C-terminal, kept
# B2: nanobody NpE2, His8-tagged (VHH)
# VHH: QVQLVESGGGLVQAGDSLRLSCVASGFTPNPAVSWVRQAPGKDLEWVSSIYHGDITSYATSVKGRFTISRDNAKNTVYLQMNSLKPEDSAIYYCTKGDSRGQGTQVTVSS
# notes: as the VHH of m12; also called OROV Np Nb E2 H8; not shown: His8, C-terminal, kept
# B3: biotinylated nanobody NpE2 (AviTag-His9) (VHH)
# VHH: B2 VHH
# notes: VHH NpE2 from an immunised llama; also called bNpE2; OROV Np Nb E2 BAP H9; not shown: AviTag, C-terminal, kept
# B4: biotinylated nanobody NpA2 (AviTag-His9) (VHH)
# VHH: QVQLVESGGGLVQPGGSVRLSCAASGGIFSFNAMAWYRQAPGKQRDIVALIANDGNTNYADSVKGRFTISRDNAKNTVYLQMNSLQPEDTAVYYCSALRRGAQDWGQGTQVTVSS
# notes: VHH NpA2 from an immunised llama; also called bNpA2; OROV Np Nb A2 BAP H9; not shown: AviTag, C-terminal, kept
# B5: nanobody NpA2, His8-tagged (VHH)
# VHH: B4 VHH
# notes: as the VHH of m10; also called OROV Np Nb A2 H8; not shown: His8, C-terminal, kept
# B6: nanobody NpD2, His8-tagged (VHH)
# VHH: QVQLVESGGGLAQPGGSLRLSCAASGFTLDYYSIGWFRQAPGKEREGVSCISSGGSTYYADSVKGRFAISSDNAKNTVYLQMNSLKPEDTAVYYCAADIMSCPGKYSAVADYWGQGTQVIVDS
# notes: as the VHH of m11; also called OROV Np Nb D2 H8; not shown: His8, C-terminal, kept
# B7: biotinylated nanobody NpD2 (AviTag-His9) (VHH)
# VHH: B6 VHH
# notes: VHH NpD2 from an immunised llama; also called bNpD2; OROV Np Nb D2 BAP H9; not shown: AviTag, C-terminal, kept
# B8: biotinylated nanobody SpE8 (AviTag-His9) (VHH)
# VHH: QVQLVESGGGFVRAGDSLRLSCAASGRAFSTYAMGWFRQAPGKEREFVAGITLGSRITQYADSVKGRFTISRDNARQTMYLQMNNLQPEDTADYYCAARGQGSPPLRNRWSADDYNYWGQGLQVTVSS
# notes: VHH SpE8 from an immunised llama; also called bSpE8; OROV Gc Spike Nb E8 BAP H9; not shown: AviTag, C-terminal, kept
# B9: nanobody SpE8, His8-tagged (VHH)
# VHH: B8 VHH
# notes: as the VHH of m21; also called OROV Gc Spike Nb E8 H8; not shown: His8, C-terminal, kept
# B10: OROV nucleoprotein (N), recombinant, strain BeAn19991 (natural protein, Oropouche virus strain BeAn19991)
# chain: MSEFIFNDVPQRTTSTFDPEAAYVAFEARYGQVLNAGVVRVFFLNQKKAKDVLRKTSRPMVDLTFGGVQFAMVNNHFPQFQSNPVPDNGLTLHRLSGYLARWAFTQMRSPIKQAEFRATVVVPLAEVKGCTWNDGDAMYLGFAAGAEMFLQTFTFFPLVIEMHRVLKDGMDVNFMKKVLRQRYGQKTAEQWMREEIVAVRAAFEAVGTLAWARTGFSPAARDFLRQFGIDI
# B11: OROV nucleoprotein (N) of strain TRVL, native, in virus stock (natural protein)
# chain: B10 chain
# notes: N protein of Oropouche virus strain TRVL (Anderson et al, 1961); also called OROV TRVL
# B12: OROV nucleoprotein (N) of the 2023-4 epidemic isolate AM0088, native (natural protein)
# chain: B10 chain
# notes: also called OROV AM0088 N
# B13: OROV nucleoprotein (N) of strain BeAn19991, native, in virus stocks and infected cells (natural protein, Oropouche virus strain BeAn19991)
# chain: B10 chain
# notes: N protein of Oropouche virus strain BeAn19991, GenBank AJE24680.1, as made by the virus; also called OROV BeAn19991
# B14: OROV nucleoprotein (N) in serum of patients with acute OROV infection (natural protein)
# chain: B10 chain
# notes: N protein of the Oropouche virus infecting the patients; also called OROV N protein
# B15: nanobody SpB6, His8-tagged (VHH)
# VHH: QVQLVESGGGLVQPGDSLRLSCAASGRTFSNYAMGWFRQAPGKEREKVAALSRSGTSTYYLDRVKGRFTISRDNTKNMVYLQMNSLEPEDTAVYYCAADPLFQNAAYHYSGQGTQVTVST
# notes: as the VHH of m18; also called OROV Gc Spike Nb B6 H8; not shown: His8, C-terminal, kept
# B16: biotinylated nanobody SpB6 (AviTag-His9) (VHH)
# VHH: B15 VHH
# notes: VHH SpB6 from an immunised llama; also called bSpB6; OROV Gc Spike Nb B6 BAP H9; not shown: AviTag, C-terminal, kept
# B17: nanobody NpF2, His8-tagged (VHH)
# VHH: QVQLVESGGGAVQAGGSLRLSCAASGRTFSSFPMGWFRQAPGKEREFIAAINWSGASKYYADSVKGRFAISRDNAKNTVYLQMNSLTPEDTAVYSCAAGSGRYGYTFSKEYTYWGQGTQVIVAS
# notes: as the VHH of m14; also called OROV Np Nb F2 H8; not shown: His8, C-terminal, kept
# B18: biotinylated nanobody NpF2 (AviTag-His9) (VHH)
# VHH: B17 VHH
# notes: VHH NpF2 from an immunised llama; also called bNpF2; OROV Np Nb F2 BAP H9; not shown: AviTag, C-terminal, kept
# B19: nanobody SpC7, His8-tagged (VHH)
# VHH: QVQLVESGGGLVQAGGSLRLSCAASGRTFSPNAMGWFRQAPGKEREFVSAISWSGGSTTYADSVKGRFTISRDNAKNTVSLQMNSLKPEDTAVYYCAADLEGMVVADRIWGQGTQVTVSS
# notes: as the VHH of m20; also called OROV Gc Spike Nb C7 H8; not shown: His8, C-terminal, kept
# B20: biotinylated nanobody SpC6 (AviTag-His9) (VHH)
# VHH: QVQLVESGGGSVQAGGSLRLSCAASGRTFSRYAMGWLRQAPGKEREFVAAITWSGGNTYYADSVKGRFTITRDDAKNTVYLQINNPKPEDTAVYYCAAGTQTGRIRDKGPSYWGQGTQVTVSS
# notes: VHH SpC6 from an immunised llama; also called bSpC6; OROV Gc Spike Nb C6 BAP H9; not shown: AviTag, C-terminal, kept
# B21: nanobody SpC6, His8-tagged (VHH)
# VHH: B20 VHH
# notes: as the VHH of m19; also called OROV Gc Spike Nb C6 H8; not shown: His8, C-terminal, kept
# B22: biotinylated nanobody SpA9 (AviTag-His9) (VHH)
# VHH: QVQLVESGGGLVQPGGSLTLSCAASGFTFSTLAMAWFRQAPGKERESVAVINRSGGIVNYADSVKGRFTITRDNAKNMVYLQMNSLKPEDTAVYYCAARTGYAYVRVSDYDSWGQGTQVTVSS
# notes: VHH A9 against Gc spike from an immunised llama; also called OROV Gc Spike Nb A9 BAP H9; not shown: AviTag, C-terminal, kept
# B23: nanobody NpG1, His8-tagged (VHH)
# VHH: QVQLVESGGGLVQPGDSLRLSCAASGRTFTDYPMAWFRQAPGKEREFVTAINWSGGATYYADSVKGRFTISRDNTRNTVFLQMNSLKPEDTAVYYCAGGSGRLSYNMDKEYIYWGQGIQVTVSS
# notes: as the VHH of m15; also called OROV Np Nb G1 H8; not shown: His8, C-terminal, kept
# B24: biotinylated nanobody NpG1 (AviTag-His9) (VHH)
# VHH: B23 VHH
# notes: VHH NpG1 from an immunised llama; also called bNpG1; OROV Np Nb G1 BAP H9; not shown: AviTag, C-terminal, kept
# B25: biotinylated nanobody SpA7 (AviTag-His9) (VHH)
# VHH: QVQLVESGGGSVQAGGSLRLSCAASGRTFSAYVMGWFRQAPGKEREFVAAIRRSYGSTYYADSVKGRFTISTDNAKNTVTLQMNSLKPEDTAIYYCAAIRQGGGWGSSAVDYWGQGTQVTVAS
# notes: VHH A7 against Gc spike from an immunised llama; also called OROV Gc Spike Nb A7 BAP H9; not shown: AviTag, C-terminal, kept
# Experiments:
# [1] = target: B10; assay: ELISA; conditions: both partners purified
# [2] = target: B10; assay: BLI; streptavidin biosensors loaded with biotinylated nanobodies, 1 µM OROV N with or without 25 µM competitor nanobody, 300 s association, 30 °C, PBS-T, Octet Red; conditions: both partners purified
# [3] = target: B10; assay: ELISA; […], biotinylated nanobody 2 µg/mL, […], room temperature; conditions: both partners purified
# [4] = target: T1, OROV Gc spike region (residues 482-894 of the M polyprotein), recombinant, strain BeAn19991 (Oropouche virus strain BeAn19991, UniProt A0A0B5CLT0); assay: as above; conditions: both partners purified
# T1 construct: Gc spike region (head and stalk domains) of the M polyprotein of Oropouche virus strain BeAn19991, GenBank AJE24679.1, residues 482-894; also called Gc spike domain
# [5] = target: T1, OROV Gc spike region (residues 482-894 …); assay: ELISA; conditions: both partners purified
# [6] = target: T2, biotinylated nanobody-Fc fusion bFcNpD2 (C-terminal AviTag) (llama); assay: ELISA
# T2 construct: as the VHH of m11; also called OROV FcNpD2 BAP; not shown: Fc (human IgG1 hinge and Fc domains 2 and 3), C-terminal, kept; AviTag, C-terminal, kept
# [7] = target: T3, nanobody-Fc fusion FcNpD2, HRP-conjugated (llama); assay: ELISA
# T3 construct: as the VHH of m11; also called OROV FcNpD2; not shown: Fc (human IgG1 hinge and Fc domains 2 and 3), C-terminal, kept
# [8] = target: T4, OROV glycoprotein Gc of strain BeAn19991, native, in virus stocks and infected cells (Oropouche virus strain BeAn19991, UniProt A0A0B5CLT0); assay: ELISA; conditions: one partner purified
# T4 construct: On virus particles Gc stands with Gn; also called Gc spike; OROV BeAn19991
# [9] = target: T5, OROV glycoprotein Gc of strain TRVL, native, in virus stock (Oropouche virus strain TRVL (stand-in: …, UniProt A0A0B5CLT0, strain)); assay: ELISA; conditions: one partner purified
# T5 construct: also called Gc spike; OROV TRVL
# [10] = target: B11; assay: ELISA; conditions: one partner purified
# [11] = target: B13; assay: ELISA; conditions: one partner purified
binder,measurement,setting,value
B1,binding result,[1],binds
B2,binding result,[1],binds
B3,binding result,[2],binds
B4,binding result,[3],binds
B5,binding result,[1],binds
B6,binding result,[1],binds
B7,binding result,[3],binds
B8,binding result,[4],binds
B9,binding result,[5],binds
B10,binding result,[6]; both partners purified,binds
same,binding result,[7]; both partners purified,binds
B11,binding result,[6]; one partner purified,binds
same,binding result,[7]; one partner purified,binds
B12,binding result,[6]; one partner purified,binds
same,binding result,[7]; one partner purified,binds
B13,binding result,[6]; one partner purified,binds
same,binding result,[7]; one partner purified,binds
B14,binding result,[6]; one partner purified,binds
same,binding result,[7]; one partner purified,binds
B15,binding result,[5],binds
same,binding result,[8],binds
same,binding result,[9],binds
B16,binding result,[4],binds
B17,binding result,[1],binds
same,binding result,[10],binds
same,binding result,[11],binds
B18,binding result,[2],binds
B19,binding result,[5],binds
B20,binding result,[4],binds
B21,binding result,[5],binds
B22,binding result,[4],binds
B23,binding result,[1],binds
B24,binding result,[2],binds
B25,binding result,[4],binds
